Measured values published in PMC10765524 (2023).
Positions count from the first letter of the chain named.

Columns and labels:
Assay in all cases: FP
[1] = biological target: T1, ARPP19 S104A as used in the fluorescence polarization assay (UniProt P56211 1-112, S104A)
T1 sequence: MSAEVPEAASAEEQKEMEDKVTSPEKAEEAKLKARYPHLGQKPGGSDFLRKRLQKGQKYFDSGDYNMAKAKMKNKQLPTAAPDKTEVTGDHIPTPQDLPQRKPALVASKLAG

[2] = biological target: T2, ARPP19(S10C) labelled with Alexa Fluor 488 (ARPP19-tracer) (UniProt P56211 1-112, S10C, Alexa Fluor 488 C5 Maleimide label)
T2 sequence: T1 sequence with S10C, A104S

[3] = biological target: FAM_(67-120)S120C (UniProt Q96E09 67-120, S120C, Alexa Fluor 488 C5 Maleimide label)
[4] = biological target: FAM122AID(S120C) (FAM122AID-tracer) (UniProt Q96E09 29-120, S120C, Alexa Fluor 488 C5 Maleimide label (fluorescence polarization assay))

B1: B55 loopless (B55LL) (domain or fragment)
chain: MAGAGGGNDIQWCFSQVKGAVDDDVAEADIISTVEFNHSGELLATGDKGGRVVIFQQEQENKIQSHSRGEYNVYSTFQSHEPEFDYLKSLEIEEKINKIRWLPQKNAAQFLLSTNDKTIKLWKISNGEASPRRIFANAHTYHINSISINSDYETYLSADDLRINLWHLEITDRSFNIVDIKPANMEELTEVITAAEFHPNSCNTFVYSSSKGTIRLCDMRASALCDRHSKLFEEPEDPSNRSFFSEIISSISDVKFSHSGRYMMTRDYLSVKIWDLNMENRPVETYQVHEYLRSKLCSLYENDCIFDKFECCWNGSDSVVMTGSYNNFFRMFDRNTKRDITLEASRENNKPRTVLKPRKVCASGKRKKDEISVDSLDFNKKILHTAWHPKENIIAVATTNNLYIFQDKVN
Kd [1]: 326 nM
Kd [2]: 323 nM
Kd [3]: 827 nM
Kd [4]: 837 nM
